Measurements taken from publication PMC12203367, “Shikimate Kinase-Like 1 Participates in an Ancient and Conserved Role Contributing to Chloroplast Biogenesis in Land Plants” (Molecular Biology and Evolution, 2025).

Substrate: O=C(O)C1=C[C@@H](O)[C@@H](O)[C@H](O)C1
Assay: purified protein
Type: biochemical, Marchantia polymorpha
Settings: 2.5 mM ATP, 1 mM MgCl2, 50 mM Tris-HCl pH 7.5, 200 mM NaCl, 30 °C, shikimate 0-3 mM

B1: MpSK (Δ113MpSK) (Marchantia polymorpha) (protein)
chain: QYSLELQEDEELLKKKAALVVQQLAGSCIFLVGMMGSGKTTVGKHVSEALGYYFFDSDKLVEESRGKTVAEMFRYGREEEFRNAESEVLEQLSSMVRLVVATGGGAVVRPENWSYLRHGITVWLDVPVDSLAERVVAVGCHSRPLLGVQAHDSAYKQALERLTHILQERADFYASADAVVSVEELARKRGQDINSITPTMIAVQVLEEISKMLERGDRDPSLQY
notes: N-terminal 113 residues (predicted chloroplast transit peptide) removed; cloned from Tak-2 cDNA; pET28a-MOD, C-terminal His6 cleaved by TEV; E. coli BL21-CodonPlus
B1 was tested, and the Km was 782.5 µM and the kcat was 1.0 s⁻¹.
